The target in experiment [1] is T1, bovine trypsin (type III) (bovine, UniProt P00760 24-246). Put plainly: enzyme inhibition, trypsin 48.5 pM.
Experiment [2] has as its target T2, human plasmin (human, UniProt P00747 97-810, limits assumed). Put plainly: enzyme inhibition, human plasmin 50 pM.
Experiment [3] deals with T1, bovine trypsin (type III). Put plainly: enzyme inhibition, trypsin 48.5 pM. This is another data set of the same source.
Experiment [4] has as its target T3, Factor XIa (human, UniProt P03951 19-625).
T3 construct: also called FXIa; Human FXIa
As to the kind of experiment: enzyme inhibition, factor XIa 0.1 nM.

The target in experiment [5] is T4, human factor Xa (human, UniProt P00742 41-179; P00742 235-488, limits assumed). As to the kind of experiment: enzyme inhibition, factor Xa 0.87 nM.
For experiment [6], the target named is T2, human plasmin. As to the kind of experiment: enzyme inhibition, human plasmin 50 pM. The source holds these as a separate data set.
The target of experiment [7] is T5, Tissue Factor VIIa.
T5 construct: also called TF/FVIIa
Put plainly: enzyme inhibition, method not described.

The target in experiment [8] is T6, human plasma kallikrein (human, UniProt P03952 20-638). Put plainly: enzyme inhibition, human plasma kallikrein 2.5 nM.
The target of experiment [9] is T7, bovine pancreatic kallikrein (bovine).
T7 construct: also called kallikrein-sepharose
As to the kind of experiment: enzyme inhibition, bovine pancreatic kallikrein 100 pM.

The target of experiment [10] is tissue plasminogen activator (tPA), single chain form from human melanoma cell culture (human, UniProt P00750 36-562, limits assumed). Put plainly: enzyme inhibition, tPA 7.5 nM, chromogenic substrate, A405. The method, then: Inhibition of tissue plasminogen activator (tPA) was also determined as follows: tPA (single chain form from human melanoma cell culture from Sigma Chemical Co, St Louis, Mo.) was pre-incubated with inhibitor for 2 hr at room temperature in 20 mM Tris buffer pH 7.2 containing 150 mM NaCl, and 0.02% sodium azide. […] Formation of p-Nitroaniline was determined from the A405 nm measured following incubation at 37 C for 2 hr.

Experiment [11] has as its target T8, human tissue kallikrein (human, UniProt P06870 25-262). As to the kind of experiment: enzyme inhibition, human tissue kallikrein 0.35 nM, substrate PFR-AMC.
In experiment [12] the target is T2, human plasmin. Put plainly: enzyme inhibition, human plasmin 50 pM, substrate GPK-AMC.
The target of experiment [13] is T3, Factor XIa. Put plainly: enzyme inhibition, FXIa 0.1 nM, substrate Boc-Glu(OBzl)-Ala-Arg-AMC.
The target in experiment [14] is T6, human plasma kallikrein. Put plainly: enzyme inhibition, human plasma kallikrein […] nM, substrate PFR-AMC.
Experiment [15] has as its target T8, human tissue kallikrein. Put plainly: enzyme inhibition, human tissue kallikrein 0.35 nM, substrate PFR-AMC. The source holds these as a separate data set.
Experiment [16] concerns the target T9, Bovine chymotrypsin (bovine, UniProt P00766 1-13; P00766 16-146; P00766 149-245). As to the kind of experiment: enzyme inhibition, bovine chymotrypsin 5 nM.
Experiment [17] has as its target T7, bovine pancreatic kallikrein. Put plainly: enzyme inhibition, bovine pancreatic kallikrein 92.0 pM.
The target in experiment [18] is T10, human neutrophil elastase (human, UniProt P08246 30-247, limits assumed).
T10 sequence (looked up): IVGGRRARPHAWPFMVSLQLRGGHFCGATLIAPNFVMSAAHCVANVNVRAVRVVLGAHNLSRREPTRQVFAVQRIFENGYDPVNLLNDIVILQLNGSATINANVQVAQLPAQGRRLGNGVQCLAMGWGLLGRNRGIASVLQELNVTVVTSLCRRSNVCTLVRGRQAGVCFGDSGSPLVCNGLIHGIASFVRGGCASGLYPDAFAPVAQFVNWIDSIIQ
As to the kind of experiment: enzyme inhibition, elastase. The method, then:
(§1) Ki values were determined from Dixon plots of the form 1/V versus performed at two different substrate concentrations (Dixon et al., 1979).

The target of experiment [19] is T3, Factor XIa. As to the kind of experiment: enzyme inhibition, Factor XIa 0.1 nM.
Experiment [20] deals with T2, human plasmin. As to the kind of experiment: enzyme inhibition, human plasmin 50 pM. This is another data set of the same source.
Experiment [21] addresses T2, human plasmin. As to the kind of experiment: enzyme inhibition, human plasmin 50 pM. This is another data set of the same source.
The target of experiment [22] is T8, human tissue kallikrein. As to the kind of experiment: enzyme inhibition, human tissue kallikrein.
Experiment [23] has as its target human urokinase (human, UniProt P00749 21-431, limits assumed). As to the kind of experiment: enzyme inhibition, urokinase, substrate GGR-AMC.
Experiment [24] concerns the target T6, human plasma kallikrein. As to the kind of experiment: enzyme inhibition, human plasma kallikrein […] nM.
Experiment [25] has as its target T4, human factor Xa. As to the kind of experiment: enzyme inhibition, factor Xa 0.87 nM, substrate LGR-AMC.
The target of experiment [26] is T9, Bovine chymotrypsin. As to the kind of experiment: enzyme inhibition, chymotrypsin 5 nM, substrate AAPF-pNA.
Experiment [27] has as its target T2, human plasmin. Put plainly: enzyme inhibition, human plasmin 50 pM, substrate GPK-AMC. This is another data set of the same source.
For experiment [28], the target named is T8, human tissue kallikrein. As to the kind of experiment: enzyme inhibition, human tissue kallikrein 0.35 nM, substrate PFR-AMC. The source holds these as a separate data set.
Experiment [29] deals with T3, Factor XIa. As to the kind of experiment: enzyme inhibition, factor XIa 0.1 nM, substrate Boc-Glu(OBzl)-Ala-Arg-AMC.
Experiment [30] concerns the target T10, human neutrophil elastase. Put plainly: enzyme inhibition (Dixon plot), human neutrophil elastase 19 nM, substrate AAPM-AMC. The method, then:
as §1

For experiment [31], the target named is T6, human plasma kallikrein. Put plainly: enzyme inhibition, plasma kallikrein (apparent Ki).

Read-outs that look alike come from different tables or passages of the source. Where no end group is shown, it is not given here. Some results are limits rather than exact numbers.

T6 sequence (P03952 20-638 limits assumed): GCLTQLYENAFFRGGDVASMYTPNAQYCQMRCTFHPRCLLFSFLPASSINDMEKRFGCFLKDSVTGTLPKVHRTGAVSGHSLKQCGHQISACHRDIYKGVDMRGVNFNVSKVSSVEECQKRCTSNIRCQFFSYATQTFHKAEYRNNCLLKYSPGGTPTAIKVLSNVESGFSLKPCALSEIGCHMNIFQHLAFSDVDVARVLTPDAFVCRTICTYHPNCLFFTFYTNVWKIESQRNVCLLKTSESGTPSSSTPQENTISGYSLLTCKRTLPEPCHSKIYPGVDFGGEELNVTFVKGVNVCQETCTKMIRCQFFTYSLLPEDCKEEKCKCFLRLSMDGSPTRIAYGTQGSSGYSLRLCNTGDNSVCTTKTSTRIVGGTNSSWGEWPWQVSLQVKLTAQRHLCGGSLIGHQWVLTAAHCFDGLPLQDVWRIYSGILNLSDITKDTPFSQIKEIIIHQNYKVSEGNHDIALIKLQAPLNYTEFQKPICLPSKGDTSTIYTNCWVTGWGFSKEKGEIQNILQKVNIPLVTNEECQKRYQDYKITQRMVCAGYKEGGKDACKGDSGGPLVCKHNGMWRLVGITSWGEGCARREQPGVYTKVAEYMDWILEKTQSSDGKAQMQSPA
T8 sequence (P06870 25-262 limits assumed): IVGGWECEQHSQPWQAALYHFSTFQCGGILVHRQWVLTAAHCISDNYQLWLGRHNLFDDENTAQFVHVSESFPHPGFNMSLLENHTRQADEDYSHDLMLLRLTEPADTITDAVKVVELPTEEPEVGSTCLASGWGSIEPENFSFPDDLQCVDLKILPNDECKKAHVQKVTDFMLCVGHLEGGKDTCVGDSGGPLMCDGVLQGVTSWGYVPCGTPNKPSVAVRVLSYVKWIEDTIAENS
T2 sequence (P00747 97-810 limits assumed): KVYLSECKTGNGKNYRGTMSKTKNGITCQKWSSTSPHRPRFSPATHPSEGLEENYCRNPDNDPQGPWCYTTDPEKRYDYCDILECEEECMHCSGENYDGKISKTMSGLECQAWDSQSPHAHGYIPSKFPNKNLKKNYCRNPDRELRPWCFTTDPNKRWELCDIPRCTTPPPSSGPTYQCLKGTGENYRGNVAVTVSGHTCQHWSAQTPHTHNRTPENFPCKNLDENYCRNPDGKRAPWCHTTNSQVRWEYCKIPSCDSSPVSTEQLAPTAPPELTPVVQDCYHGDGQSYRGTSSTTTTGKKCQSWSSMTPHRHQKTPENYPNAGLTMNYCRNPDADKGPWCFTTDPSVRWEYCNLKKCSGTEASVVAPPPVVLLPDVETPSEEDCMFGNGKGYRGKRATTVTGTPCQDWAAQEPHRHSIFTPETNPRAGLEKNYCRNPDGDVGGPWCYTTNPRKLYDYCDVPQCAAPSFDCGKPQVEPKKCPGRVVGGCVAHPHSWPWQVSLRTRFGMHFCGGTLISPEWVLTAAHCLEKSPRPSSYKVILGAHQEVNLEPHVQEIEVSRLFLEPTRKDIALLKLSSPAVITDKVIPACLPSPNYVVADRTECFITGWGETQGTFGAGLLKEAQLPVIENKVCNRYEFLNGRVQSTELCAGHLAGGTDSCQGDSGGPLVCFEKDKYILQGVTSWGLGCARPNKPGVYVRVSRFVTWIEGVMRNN
T1 sequence (P00760 24-246): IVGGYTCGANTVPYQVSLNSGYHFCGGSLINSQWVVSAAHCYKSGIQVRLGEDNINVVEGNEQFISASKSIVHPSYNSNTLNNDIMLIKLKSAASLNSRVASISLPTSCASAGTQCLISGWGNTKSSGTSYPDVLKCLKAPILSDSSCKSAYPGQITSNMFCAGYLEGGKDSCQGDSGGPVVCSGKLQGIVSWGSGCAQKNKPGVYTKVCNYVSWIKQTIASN
T4 sequence (P00742 41-179 limits assumed, chain 1 of 2): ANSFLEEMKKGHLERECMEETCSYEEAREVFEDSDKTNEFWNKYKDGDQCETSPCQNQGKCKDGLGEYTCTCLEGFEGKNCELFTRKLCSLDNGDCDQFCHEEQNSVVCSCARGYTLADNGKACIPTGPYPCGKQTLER
T4 sequence (P00742 235-488 limits assumed, chain 2 of 2): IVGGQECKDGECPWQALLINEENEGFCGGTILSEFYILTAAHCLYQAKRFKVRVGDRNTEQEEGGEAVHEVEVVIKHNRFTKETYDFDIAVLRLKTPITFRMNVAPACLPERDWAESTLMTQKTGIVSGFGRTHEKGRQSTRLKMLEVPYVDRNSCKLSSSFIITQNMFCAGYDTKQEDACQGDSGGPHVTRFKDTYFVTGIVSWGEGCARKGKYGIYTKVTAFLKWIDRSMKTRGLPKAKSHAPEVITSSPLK
Chain of tissue plasminogen activator (tPA), single chain form from human melanoma cell culture (P00750 36-562 limits assumed): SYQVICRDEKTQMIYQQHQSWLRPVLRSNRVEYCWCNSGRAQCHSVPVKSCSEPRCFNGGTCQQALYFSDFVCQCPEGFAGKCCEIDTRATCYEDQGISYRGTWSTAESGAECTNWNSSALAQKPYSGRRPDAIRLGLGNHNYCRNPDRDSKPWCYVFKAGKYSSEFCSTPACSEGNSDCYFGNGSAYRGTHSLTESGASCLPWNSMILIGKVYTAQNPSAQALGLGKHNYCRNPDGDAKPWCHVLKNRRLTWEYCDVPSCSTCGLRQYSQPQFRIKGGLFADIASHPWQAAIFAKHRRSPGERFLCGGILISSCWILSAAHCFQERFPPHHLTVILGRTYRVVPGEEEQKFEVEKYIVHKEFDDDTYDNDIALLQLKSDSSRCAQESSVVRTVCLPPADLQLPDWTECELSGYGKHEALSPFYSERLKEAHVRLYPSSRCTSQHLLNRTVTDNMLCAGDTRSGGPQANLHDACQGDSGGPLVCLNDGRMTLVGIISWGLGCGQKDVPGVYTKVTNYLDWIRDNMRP

B1: native human placental bikunin isolated from placenta (other)
chain: ADRERSIHDFCLVSKVVGRCRASMPRWWYNVTDGSCQLFVYGGCDGNSNNYLTKEECLKKCATVTENATGDLATSRNAADSSVPSAPRRQDSEDHSSDMFNYEEYCTANAVTGPCRASFPRWYFDVERNSCNNFIYGGCRGNKNSYRSEEACMLRCFRQQENPPLPLGSK
modifications: Asn 30 silent in sequencing, likely glycosylated
notes: Soluble protein purified from human placenta; A minor species started at residue 6; also called native Placental Bikunin (1-179)
B1: the Ki in [1] came out at 0.13 nM; in [2], 1.9 nM.

B2: placental bikunin (1-170) derived from a baculovirus/Sf9 expression system (other)
chain: ADRERSIHDFCLVSKVVGRCRASMPRWWYNVTDGSCQLFVYGGCDGNSNNYLTKEECLKKCATVTENATGDLATSRNAADSSVPSAPRRQDSEDHSSDMFNYEEYCTANAVTGPCRASFPRWYFDVERNSCNNFIYGGCRGNKNSYRSEEACMLRCFRQQENPPLPLGSK
notes: Both Kunitz domains, truncated before the transmembrane segment; N-terminus ADRER confirmed, so the signal peptide was removed; also called Recombinant Bikunin; recombinant placental bikunin (1-170)
As for B2, the Ki in [3] came out at 0.064 nM; in experiment [4], 3 nM; in [5], 180 nM; in [6], 0.23 nM; in experiment [7] it was 800 nM; in experiment [8] it was 0.18 nM. The figures for the Ki in [9], in experiment [10] and in [11] were 0.12 nM, less than 60 nM and 0.04 nM, respectively.

B3: CHO expressed placental bikunin (1-170) (other)
chain: ADRERSIHDFCLVSKVVGRCRASMPRWWYNVTDGSCQLFVYGGCDGNSNNYLTKEECLKKCATVTENATGDLATSRNAADSSVPSAPRRQDSEDHSSDMFNYEEYCTANAVTGPCRASFPRWYFDVERNSCNNFIYGGCRGNKNSYRSEEACMLRCFRQQENPPLPLGSK
modifications: N-linked carbohydrate at Asn-30 and Asn-61 (so in the source)
notes: Glycosylated isoforms of 21-38 kDa; also called CHO Bikunin (1-170)
As for B3, the Ki in experiment [12] was found to be 0.2 nM; in experiment [13], 1.9 nM; in experiment [14] it was 0.5 nM; in [15], 0.3 nM.

B4: synthetic placental bikunin (7-64), first preparation of Example 2 (other)
chain: IHDFCLVSKVVGRCRASMPRWWYNVTDGSCQLFVYGGCDGNSNNYLTKEECLKKCATV
notes: also called placental bikunin fragment (7-64); KID1
Turning to B4, the Ki in experiment [16] worked out at 0.6 nM; in experiment [17], 0.4 nM.

B5: synthetic placental bikunin (102-159) (other)
chain: YEEYCTANAVTGPCRASFPRWYFDVERNSCNNFIYGGCRGNKNSYRSEEACMLRCFRQ
modifications: disulfide (positions not given here)
notes: also called KID2
Regarding B5, the Ki came to 323 nM in experiment [18]; 15 nM in experiment [19]; 1.8 nM in [20]; 1.8 nM in experiment [21]; 0.13 nM in [22]; 0.2 nM in experiment [16]. Also, the Ki in experiment [23] was determined as 11000 nM; in [24] it was 0.7 nM; in [25] it was 274 nM; in [26], 0.24 nM; in [27], 1.8 nM; in experiment [28], 0.13 nM. The Ki in experiment [29] is 15 nM; in experiment [30], 323 nM.

B6: placental bikunin (102-159) expressed in yeast strain SC101 (recombinant 2.4) and purified (other)
chain: YEEYCTANAVTGPCRASFPRWYFDVERNSCNNFIYGGCRGNKNSYRSEEACMLRCFRQ
notes: also called placental bikunin C-terminal domain
Turning to B6, the Ki in experiment [31] was determined as 0.35 nM.

The values are drawn from patent publication US20070086956A1 (Bayer, published 2007).
